In paper PMC8514465, “Functional and structural analysis of catabolite control protein C that responds to citrate” (Scientific Reports, 2021):
Residue numbers refer to the chain shown, from its start.

What was measured:
BaCcpC-FL = target: T1, BaCcpC-FL (Bacillus velezensis, UniProt A7Z428); experiment: EMSA with biotin-labelled citB promoter DNA; format: binding; conditions: 40 μM protein, 800 nM citB promoter DNA, 0-70 μM citrate, 30 min, room temperature; inducer
T1 construct: gene RBAM_013910; full length, residues 1-293; N-terminal His tag removed by TEV; E. coli BL21(DE3); dimer (~60 kDa) by SEC-MALS
T1 sequence (A7Z428 1-293): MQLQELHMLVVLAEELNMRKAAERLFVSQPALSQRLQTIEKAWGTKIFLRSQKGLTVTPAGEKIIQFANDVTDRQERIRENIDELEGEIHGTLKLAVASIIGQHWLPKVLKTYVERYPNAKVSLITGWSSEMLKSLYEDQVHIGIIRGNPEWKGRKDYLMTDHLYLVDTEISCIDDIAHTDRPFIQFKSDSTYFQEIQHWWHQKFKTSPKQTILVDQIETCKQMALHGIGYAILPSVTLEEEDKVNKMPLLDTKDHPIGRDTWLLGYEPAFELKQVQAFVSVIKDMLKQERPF

[1] = target: the molecule itself; experiment: crystal structure; BaCcpC-IBD with citrate, 2.3 Å, space group C2, SAD phasing; crystals from PEG 6000, MPD, 0.1 M HEPES pH 7.5, 287 K
[2] = target: the molecule itself; experiment: SEC-MALS; BaCcpC-FL not incubated with citrate; Superdex 200 Increase 10/300 GL, 295 K, 20 mM Tris pH 8.0, 150 mM NaCl, 2 mM 2-mercaptoethanol

Molecule: O=C(O)CC(O)(CC(=O)O)C(=O)O [citrate]
- EMSA with biotin-labelled citB promoter DNA (BaCcpC-FL): the presence of citrate slightly suppressed the binding of CcpC to citB-P

B1: C-terminal inducer-binding domain of Bacillus amyloliquefaciens CcpC (domain or fragment, UniProt A0A9P1JGF9 88-293, looked up)
chain: EIHGTLKLAVASIIGQHWLPKVLKTYVERYPNAKVSLITGWSSEMLKSLYEDQVHIGIIRGNPEWKGRKDYLMTDHLYLVDTEISCIDDIAHTDRPFIQFKSDSTYFQEIQHWWHQKFKTSPKQTILVDQIETCKQMALHGIGYAILPSVTLEEEDKVNKMPLLDAKDHPIGRDTWLLGYEPAFELKQVQAFVSVVKDMLKQERPF
modifications: selenomethionine-substituted (Se-Met protein used for SAD phasing)
notes: Crystallised in complex with citrate; five molecules in the asymmetric unit; Cloned into pPROEX-HTA; also called BaCcpC-IBD; CcpC-IBD; source: E. coli BL21 (DE3), purified (Ni-NTA, TEV cleavage, HiTrap-Q, Superdex 200) with 10 mM sodium citrate throughout; not shown: His6, N-terminal, cleaved
- binding result [1]: binds

B2: full-length catabolite control protein C from Bacillus amyloliquefaciens (natural protein, UniProt A0A9P1JGF9 1-293, looked up)
chain: T1 sequence (A7Z428 1-293) with T253A, I283V
notes: Catabolite control protein C (CcpC), LysR-type transcriptional regulator, Bacillus amyloliquefaciens, residues 1-293, amplified from genomic DNA; PDB 7DMW holds only residues 88-293; also called BaCcpC-FL; BaCcpC; source: E. coli BL21 (DE3), purified (Ni-NTA, TEV cleavage, HiTrap-Q, Superdex 200); not shown: His6, N-terminal, cleaved
- stoichiometry N [2]: 2
